Data reported in patent US20210292412A1 (CHENGDU CONMED BIOSCIENCES, published 2021).

Molecular target: T1, human CD47 on CCRF-CEM cells (CD47 positive cells) (human, UniProt Q08722 19-323)
T1 construct: whole, on cells; also called hCD47-expressing tumor cells CCRF-CEM; CD47 receptor on the cell surface
Assay: CD47-SIRPα blocking experiment, FIG. 5 legend

B1: hybridoma positive clone 10B8 (antibody, V domains shown)
VH: QIQLQQSGPDLVKPGASVKISCKASGYTFTDYYIHWMKQKPGQGLEWIGWIYPGSGNTKYNEKFKGKATLTVDTSSSTPYMQLSSLTSEDTAVYFCARRREDSFDYWGQVTTLTVSS
VL: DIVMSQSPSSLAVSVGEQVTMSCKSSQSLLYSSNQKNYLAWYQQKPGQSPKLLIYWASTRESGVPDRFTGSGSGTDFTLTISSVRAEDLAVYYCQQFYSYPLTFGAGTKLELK
notes: Mouse hybridoma supernatant in the assay; Variable regions are printed for subclone 10B8-B8; also called Clone 10B8-B8
**Q.** Does B1 bind?
**A.** binds
